Measured values as given in patent US20240262869A1.
Read-outs that look alike come from different tables or passages of the source.

Tests used:
[1] = biological target: neutralizing antibody CR3022
[2] = biological target: neutralizing antibody CR3022; remark: listed apart in the source
[3] = biological target: neutralizing antibody CR3022; remark: listed apart in the source

For “mInCV02R (SARS CoV-2 RBD N-1) having EIS at the N-terminal (from UniProt P0DTC2 332-532) (ligand)”, the Kd [1] was < 1 nM, the Kd [2] was 16.5 nM and the Kd [3] was 15.9 nM.
